How the values were obtained:
[1] = target: YFV X-SS-prME-XX (yellow fever virus 17D) (yellow fever virus strain 17D) (UniProt P03314)
[2] = target: influenza HA protein (Flu A HA) (influenza A)

UniProt P03314, sequence (P03314 92-788 limits assumed): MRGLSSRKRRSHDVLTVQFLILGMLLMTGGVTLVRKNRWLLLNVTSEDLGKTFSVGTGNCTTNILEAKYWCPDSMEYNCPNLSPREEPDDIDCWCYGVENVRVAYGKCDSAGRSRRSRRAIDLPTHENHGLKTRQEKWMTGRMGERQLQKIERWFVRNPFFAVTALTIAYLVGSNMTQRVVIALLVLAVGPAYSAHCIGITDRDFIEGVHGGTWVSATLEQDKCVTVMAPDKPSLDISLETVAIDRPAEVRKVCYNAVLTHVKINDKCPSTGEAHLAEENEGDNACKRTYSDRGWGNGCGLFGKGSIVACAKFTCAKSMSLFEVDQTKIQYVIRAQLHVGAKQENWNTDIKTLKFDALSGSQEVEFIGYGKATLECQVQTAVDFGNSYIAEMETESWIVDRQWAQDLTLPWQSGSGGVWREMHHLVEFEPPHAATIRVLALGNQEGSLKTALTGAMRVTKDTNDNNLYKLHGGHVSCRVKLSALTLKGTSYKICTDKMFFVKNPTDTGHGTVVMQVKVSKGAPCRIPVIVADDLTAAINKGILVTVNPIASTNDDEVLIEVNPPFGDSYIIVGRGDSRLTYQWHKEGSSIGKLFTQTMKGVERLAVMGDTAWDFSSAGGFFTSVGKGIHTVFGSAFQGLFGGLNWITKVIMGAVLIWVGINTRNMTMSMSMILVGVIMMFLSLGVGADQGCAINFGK

“anti YF virus specific antibody (sc-58083 from Santa Cruz)” gave an FITC positive cells [1] of 82% and an FITC positive cells [2] of 45.1%.
